Laboratory results published in paper PMC3355487 (mAbs, 2012).
Like-named read-outs stand apart in the source and are kept apart here.

Assays:
hROR1-ECD [1] = target: T1, hROR1-ECD (Homo sapiens, UniProt Q01973); test: SPR
Fc-hROR1 [2] = target: T2, Fc-hROR1 (Homo sapiens, UniProt Q01973); test: SPR
Fc-hROR1Fz = Fc-hROR1Fz (Homo sapiens, UniProt Q01973); test: ELISA
Fc-hROR1Kr = Fc-hROR1Kr (Homo sapiens, UniProt Q01973); test: ELISA
Fc-mROR1 = Fc-mROR1 (Mus musculus, UniProt Q9Z139); test: ELISA
Fc-hROR1Fz+Kr = Fc-hROR1Fz+Kr (Homo sapiens, UniProt Q01973); test: ELISA
hROR1-ECD [3] = target: T1, hROR1-ECD; test: SPR; remark: listed apart in the source
Fc-hROR1 [4] = target: T2, Fc-hROR1; test: SPR; remark: listed apart in the source

T1 sequence (Q01973 30-406): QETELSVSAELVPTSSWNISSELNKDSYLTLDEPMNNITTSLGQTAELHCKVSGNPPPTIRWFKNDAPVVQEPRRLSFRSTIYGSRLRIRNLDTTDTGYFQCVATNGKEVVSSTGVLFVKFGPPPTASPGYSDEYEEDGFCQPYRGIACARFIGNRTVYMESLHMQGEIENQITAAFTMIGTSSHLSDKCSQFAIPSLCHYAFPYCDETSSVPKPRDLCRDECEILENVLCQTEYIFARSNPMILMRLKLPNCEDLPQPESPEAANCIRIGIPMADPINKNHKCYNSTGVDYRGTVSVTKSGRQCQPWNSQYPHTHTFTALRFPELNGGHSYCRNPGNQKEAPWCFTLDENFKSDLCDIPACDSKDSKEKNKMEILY
T2 sequence (Q01973 30-406): as above
Sequence of Fc-mROR1 (Q9Z139 30-406): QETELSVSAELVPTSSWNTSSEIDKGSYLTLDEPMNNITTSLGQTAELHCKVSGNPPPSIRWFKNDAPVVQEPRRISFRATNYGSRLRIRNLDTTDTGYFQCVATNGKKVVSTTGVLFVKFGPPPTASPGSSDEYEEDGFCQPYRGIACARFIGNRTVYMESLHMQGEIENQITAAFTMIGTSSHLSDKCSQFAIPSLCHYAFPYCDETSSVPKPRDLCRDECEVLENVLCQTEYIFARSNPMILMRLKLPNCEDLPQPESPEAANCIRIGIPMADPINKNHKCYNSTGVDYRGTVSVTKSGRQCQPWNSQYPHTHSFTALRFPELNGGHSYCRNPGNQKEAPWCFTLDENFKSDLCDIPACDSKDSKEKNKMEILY
Sequence of Fc-hROR1Fz (Q01973 165-299): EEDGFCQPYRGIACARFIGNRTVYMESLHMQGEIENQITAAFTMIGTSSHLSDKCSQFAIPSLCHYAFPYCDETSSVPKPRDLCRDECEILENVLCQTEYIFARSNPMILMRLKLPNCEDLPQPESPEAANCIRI

B1: mouse anti-human ROR1 monoclonal antibody 2A2-IgG (antibody, V domains shown)
VH: QVQLQQSGAELVRPGASVTLSCKASGYTFSDYEMHWVIQTPVHGLEWIGAIDPETGGTAYNQKFKGKAILTADKSSSTAYMELRSLTSEDSAVYYCTGYYDYDSFTYWGQGTLVTVSA
VL: DIVMTQSQKIMSTTVGDRVSITCKASQNVDAAVAWYQQKPGQSPKLLIYSASNRYTGVPDRFTGSGSGTDFTLTISNMQSEDLADYFCQQYDIYPYTFGGGTKLEIK
- Kd (hROR1-ECD [1]): 32.6 nM
- koff (hROR1-ECD [1]): 0.00777 s⁻¹
- kon (hROR1-ECD [1]): 240000 M⁻¹ s⁻¹
- Kd (Fc-hROR1 [2]): 0.79 nM
- koff (Fc-hROR1 [2]): 0.00018 s⁻¹
- kon (Fc-hROR1 [2]): 230000 M⁻¹ s⁻¹
- binding result (Fc-hROR1Fz): no binding
- binding result (Fc-hROR1Kr): no binding
- binding result (Fc-mROR1): binds
- binding result (Fc-hROR1Fz+Kr): no binding
- Kd (hROR1-ECD [3]): 0.12 nM
- koff (hROR1-ECD [3]): 0.00018 s⁻¹
- kon (hROR1-ECD [3]): 1.52e+06 M⁻¹ s⁻¹
- Kd (Fc-hROR1 [4]): 0.42 nM
- koff (Fc-hROR1 [4]): 0.00034 s⁻¹
- kon (Fc-hROR1 [4]): 810000 M⁻¹ s⁻¹
